{"source": "the DeepSol protein solubility set"}
{"assay": "soluble on expression in E. coli; label from the status in PepcDB or PDB records"}
{"sequence": "MGSDKIHHHHHHMSHNKFDIIPAASFSNIGLEMIPPFPGLSSWVQCLWVNNDLKNSSRHVEEKLYPDAGSSLTFEIRNTRINARYFHHTRVVTHRWDTSTRHISVRFRPGGAKALLGLDIDDSQNIEIDLFDTPVSQQLSLQPLMDMLPALSADQQVQAVQNWLLTLSYRAQEPSRKWSTLLAHASADLIPPQQLALQNGFSRRTLERQLRKYLGFTPNQLHGFAQIRAARQYLILTPDSLSDIALACGYFDQAHFTNAFREQTLETPLQYRQRKMSQISNR", "soluble on expression in E. coli": "not soluble"}
{"sequence": "MSLTFDFFEGPAGSGKTFSMVAHARQLIESDALGEGQRMLALTFMNGARRRLTSNLNAEASFRRKFDCLTFDSFAQSLAKRRSAKLTDEMRQQAEELGQFHGPCFLACELLNDVEVRRWVARTYPLVLVDEAQDLDVHRQGIVLGLKECCTTVVAADSFQCLSDGQETADFIDRLLRAGTTHTLTQSHRTNKAGLLAAALAVRNGEDIRAVLNEEAIGKTNRVHWIGEGIELVEVPATARNSGLLAWNLAFQLRLGSDDVALLTPDSANTIIRNAIGTVASKQRPWPHNAFSVSWEGGDSSVADELAEAIGFPDTAPYDEVCALLEEHSAQPMVKTVIRRIRRLQRVTGQSEFEKAQLVSFISDAVRTNTRLGFKKSAKIKAMSIHGAKNREFDRVIVLWPQSATGSDEHKRRLLYNAMTRTKNHCTVIVLGTGRLNSAPFAEGHHHHHH", "soluble on expression in E. coli": "soluble"}
{"sequence": "MGSSHHHHHHSSGLVPRGSHMDTKIGLEVHFQLNTGKLFCRCPVEQSSGELMRFSRKLHISASELGNIDAAASYESMRSRSFQYVVTDNSCLVEMDEEPPKTPDERAIATAISVSKALNCDIVDHITYMRKIVIDGSNTTGFQRTAIVGINGHIETSKGPVRISTVCLEEDAARKIEEIGNTVVYSLDRLGIPLIEISTEPDIVDEDHAVEVARSIGYIVISTGNARHAVDAVRQDVNFSMGYGRVEIKGVSKLTQIRDVIRYEKERQENLRAAVDLIKSRGGLDRVSFNLKDVSDLFAGTKSKIIRSGIESGGVYAGILKNMAGTLKNGKLRMGKEIADLVRSYGIKGVMHSDELPGYGLTQDEVEALYRYLGKGDNDAVLLIAINQSRVKMIENSIFDRIQKIISMDLSETRGPAGEETVFLRPMPGKDRMYPETDIPVIKVDSKLMEMSSSIKPRTYAEVVQDLVDRYGISKQNAEYIASEMVVDAFRNIAEFVEAREAARILTQIVPDLERRTKKIIDHDRIIELCRRSKDLHFDRYQLEMALEILYERDDVASVLGDSRLKELSREEIKSIIREILSSGRNATQNSIIALIKEKTERVFDPRVAMECFNEVKNKNNVF", "soluble on expression in E. coli": "soluble"}
{"sequence": "SALTCEVCVLTVPVVSNSTPGSLYVVATPIGNLDDMSVRALKVLREVALIAAEDTRHSARLMQHFGISTPLAACHEHNERDEGSRFITRLLAGDDVALISDAGTPLISDPGYHLVRQARAVGVPVVP", "soluble on expression in E. coli": "not soluble"}
{"sequence": "SFDNSLSRELSRKQNENQMFVYSFEASASMLSSDTEYIQKNDIEKIIDSVKRSMGESQIGITIVNQKEKAIYTDSKIGKNIKIKDLKDNNFGYLIFKNNGSYYLETMSKMTIESGTYYISIVSSINEVYNDINEMMKN", "soluble on expression in E. coli": "not soluble"}
{"sequence": "MNKRDYMNTSVQEPPLDYSFRSIHVIQDLVNEEPRTGLRPLKRSKSGKSLTQSLWLNNNVLNDLRDFNQVASQLLEHPENLAWIDLSFNDLTSIDPVLTTFFNLSVLYLHGNSIQRLGEVNKLAVLPRLRSLTLHGNPMEEEKGYRQYVLCTLSRITTFDFSGVTKADRTTAEVWKRMNIKPKKAWTKQNTL", "soluble on expression in E. coli": "soluble"}
{"sequence": "MGSDKIHHHHHHAEVAVPDTTPKDTASAVKITYEDPRDPFEGFNRVMWDFNYLYLDRYLYRPVAHGYNDYIPLPAKMGVNNFLQNLEEPSSVVNNLLQGKWGWAANAGGRFTVNTTIGLLGVIDVADMMGMTRKQDEFNEVLGYYGVPNGPYFMAPFAGPYIVRELASDWVDGLYFPLSELTMWQSVLKWGLKSLHARASAIDQERLVDNALDPYAFVKDAYIQHMDYKVYDGNVPQKQEDDELLDQYMQELE", "soluble on expression in E. coli": "not soluble"}
{"sequence": "MSGAGHSLNSDPVTTIATSSSEPVTSPSSASHVPVQTAPASHGAPSSVASQPPASVDGKAGAPDEARTASSASNPQGSEHPGSVDPAATTTAATTSASTTSITSTAATTTTTTTTGTTATGRVSPTIPPETLFHDAIKRCNNCLFLIRKLRNKQDHIARLFLDTSGNDQAEFNSAFQNYKDFGLMVHEVMMFYDKLDHIARHLPKALPPIDNINLMRTLYTQEHTMCHININNLLEKMIDCGNWNEGNFQTFFYLSELLRCGSTRKYSNLPEQRLVPPAMFHSQATNSHAAFEHAFNGLRKEIANKSLGIYPKVLQRTTCSLIIEFLFGCGGAKPGEKNTDKEIVYTIKFLIIERNGSIEYINIMAPTEDWHMVNDYAIPTINPFAPSRYEVYRRLTKQANIHLFNCFAQNRWTAGTLFHFISLYGKFRELFTTKCRSCKQVLSRKNFLPPLIFDIRNPNNAAHEVCR", "soluble on expression in E. coli": "not soluble"}
{"sequence": "MGSDKIHHHHHHMEIKGKVHYVGVNDRNKALFENLWPLPYGVSYNSYLIDDEMVALVDTVDVCYFEVYLKKIRSIIGDKPINYLIINHMEPDHSGSISLIKQYYPNIVIVGNKKTFEMIEGYYGVGGERYVVGEGDFLALGHHRLRFSLIPMVHWPETMVTFDETEGILFSGDAFGCFGALNGGVVDTNINTDIYWNEMVRYYSNIVGKYGAPVQKALQKLQNLKITTVCSTHGPVWTEEIPRVVRIYDRLSRYEAEEGVVIAYGSMYGNTEEVAEAIAEELSKQGIRNIVMHNVSHTSHSFIIADVFKYKGLIVGCPTYNTQMYPEMEALLSKLASREIKGRYLGYFGSFTWASAAVKKIAEFNDKLKFEPVGNPVEMKHSMKAETNTQAKELAKAMADRLKADRK", "soluble on expression in E. coli": "not soluble"}
{"sequence": "MSLSRSEEMHRLTENVYKTIMEQFNPSLRNFIAMGKNYEKALAGVTYAAKGYFDALVKMGELASESQGSKELGDVLFQMAEVHRQIQNQLEEMLKSFHNELLTQLEQKVELDSRYLSAALKKYQTEQRSKGDALDKCQAELKKLRKKSQGSKNPQKYSDKELQYIDAISNKQGELENYVSDGYKTALTEERRRFCFLVEKQCAVAKNSAAYHSKGKELLAQKLPLWQQACADPSKIPERAVQLMQQVASN", "soluble on expression in E. coli": "soluble"}
{"sequence": "MSIMDVQHVAQFYQQLDKSQLHRLIEIYHPDVVFEDAAHRIEGFDALYQYFLNLYQNVHTCTFTIHEQYAVNEGAFLVWTMHLRHPKLAKGEQVDVKGVSHLHFAEGKVTYHRDYFDMGEMLYEQLPVLGQVIRAIKRRLGQ", "soluble on expression in E. coli": "not soluble"}
{"sequence": "MSWRYSILTVDGSFKIFIPWEIFLTWNFLSAAWLNSTESNTYIHYSTCWGTSDYTLNISVIEATTEKLVDTRLLTTLENATAWINSNSIDEDEDDMPHATNVADRLDGLSLSKRVYSICHYEF", "soluble on expression in E. coli": "not soluble"}
{"sequence": "MGSDKIHHHHHHMEQATRTIYSEYAAYPETQGIIAVEKRQPRDSLTDQFDVLLLVITRDPSVEWTVKHYRLNTLRVSLHLVHEQVLSRWLILNANRRAVHWVSEGTIIFERNDYLTDLKKQLRNFPETERCLQMSLSFAKLLRRFQDGRNLFSRGNYYDAYTHVHHALHHLARLSVLEKGAHPEVVVWEQARLDDPDVYKLYEQLLLSEETLEQRIHLALIGLEHLLQSKVLSGGKYLFEVMRERDRPWTMHELMEESRLTELKVDLGSLVDFFIRKGLIRISYQRTKGLGVELVTYEPVV", "soluble on expression in E. coli": "not soluble"}
{"sequence": "TNTEEFCSGCHAPIVKEIQETIHYSNRSGVRAICSDCHVPHNWTDKIVRKVQASKELFAHYVTKTIDTEEKFKERRAHLAEREWHRMKENNSQECRNCHEFDYMDFSEQGPRSAKQHSTALASGEKTCVDCHKGIAHKL", "soluble on expression in E. coli": "not soluble"}
{"sequence": "SRMMVIKNNSEETKSREYIVIGQVFFASSDKFIASFDFKEVIECVTIDLSAAHFWDITSASALDKVVVKFRREGTQVELIGMNQATKTIVDKFGVHDKPEEVEKLLAG", "soluble on expression in E. coli": "not soluble"}
{"sequence": "MPNSEPASLLELFNSIATQGELVRSLKAGNASKDEIDSAVKMLVSLKMSYKAAAGEDYKADCPPGNPAPTSNHGPDATEAEEDFVDPWTVQTSSAKGIDYDKLIVRFGSSKIDKELINRIERATGQRPHHFLRRGIFFSHRDMNQVLDAYENKKPFYLYTGRGPSSEAMHVGHLIPFIFTKWLQDVFNVPLVIQMTDDEKYLWKDLTLDQAYGDAVENAKDIIACGFDINKTFIFSDLDYMGMSSGFYKNVVKIQKHVTFNQVKGIFGFTDSDCIGKISFPAIQAAPSFSNSFPQIFRDRTDIQCLIPCAIDQDPYFRMTRDVAPRIGYPKPALLHSTFFPALQGAQTKMSASDPNSSIFLTDTAKQIKTKVNKHAFSGGRDTIEEHRQFGGNCDVDVSFMYLTFFLEDDDKLEQIRKDYTSGAMLTGELKKALIEVLQPLIAEHQARRKEVTDEIVKEFMTPRKLAAALEHHHHHH", "soluble on expression in E. coli": "soluble"}
{"sequence": "MAGWVAKRFWKEASVAEEPGGFAVLLDGRGVRTPAKRPLILPTCALAEAVASEWQAQEGEVRPETMPVTRSANSALDKVAPQFDEVTEMLAAYGGTDLLCYRATAPEALVARQARAWDPVLAWAAERFEAPLETTAGVMHQAQPEASLTRLAEHVRSFSPFQVAGFHDLVAISGSLILGLGVTEGHLLPEEAWELSRVDESWQIEQWGADEEAAEIEAFRRTAFLQAARFYALCGKLAAALEHHHHHH", "soluble on expression in E. coli": "not soluble"}
{"sequence": "SNAMSTISRDSCPALRAGVRLQHDRARDQWVLLAPERVVELDDIALVVAQRYDGTQSLAQIAQTLAAEFDADASEIETDVIELTTTLHQKRLLRL", "soluble on expression in E. coli": "soluble"}
{"sequence": "GPGSMFSGSEGSVRTDDTNVEPPPIPKTRGPLLFEGVRLAGGPPRRTPKRSCSRYFSVTRKTTSAGTDECEHAPPGFSLVNTPSTQDVSPSAKMELPCSAAAHYDDDDDDDDIIPSTAPLPTPHPVMHRVLATGQPNGVSRLLPFDEYVVEEVTPRKCSSISADTSGAAPSTPQGTELREVTQVEEQSPLPAVPEMCESPTRFTLGPRLPVNGEKVRMDFYFLQQEVDAWAKPIETTADVEWHKQHLQETRVAMRSLLHELEVLIAREAAEHERLCIARGFSAMESTSDGKCTYAGETDVVSKTRGKEWKQEELETLEAWRVEKGALLAQKSKLLREHQELQYRLRSHLSGSATGRVTPSPNTSVSRSNKSRGDEGNIGGMSTPLDNGVAQLRLEISEMNAKLKKLEDAYKVLHDNQQWRQGEFDDEYGALCRALATATAGEINNRTALQDTIREAEGVRANCLRQGDASLVSLMERGLSEAKAALKCHDTEQYETK", "soluble on expression in E. coli": "not soluble"}
{"sequence": "MGSDKIHHHHHHMNTDIAKNTNSLNDDKKSNSEQRPYGIVLYGATSFVGQITAHYLAEFLSTSKDASGTTVTWAIAGRDEKKLNELQSKLASKVNIIIANSDDATSLDELTEQTQVIISTVGPYLKYGEPLIKSCVDNGTDYVDLTGEAIFIKDMIDKYQEAAKQSGARIVNSCGFDSIPSDLGVYFTQKQAEAKFDSACDVIHMRVKAAKGGLSGGTIASMATIFEEVGQDKSRRKQVANPYLLNDDKDVPNVRQSNVSKPEYDSEHKRWLAPFVMASINTRIVHRSNQLLGYEYGRDFKYDEAMWMKDGIKGKLTSYALSAGLLGFATAMMITPSRELLSKHVLPKSGSGPSKEEQENGYFDIRLFGKTANKETIATKVTGDKDPGYGSTSRMLSQAALCLAQDISKEAVGGGFWTPASAMGDKLLARLKEHAGLSFDVIDR", "soluble on expression in E. coli": "not soluble"}
{"sequence": "GPGSMPPSHTLLNRRGQQFSSRMHVGAKRKRVEDNASPVSSLYRPLCRGLSTRGSGASAVSCPSVVVILEKAGLLLGREGVVDAYDRAGSTTIANASLRDVRPDIVHQCLLALFDSGLAQEQRQLRVFINLFSRGGRTVEVSPSLRPPRTLRRFKGLVAALLRDGVVRSQDGEVLLQVLPGSLAPVLPYGAEVIGLTNAHSAPVRTPTQLARAALENPVDDKLQGGLKGVAGFFCICCSEDGSLDGVDYVTQQVCLSAYPMTAHVMCSRLCEGFSRAAATGNR", "soluble on expression in E. coli": "not soluble"}
{"sequence": "AKWPHLKVGGAILVAPAEPRHSDRTESFGPIFEESLGVPAYVVSSRNDPWMSFTQAERLARAWRADVVDLGFAGHINVDSGFGPWPGGVVLRDELARRPVP", "soluble on expression in E. coli": "not soluble"}
